# Measured values published in article PMC9352680, “A comprehensive thermodynamic model for RNA binding by the Saccharomyces cerevisiae Pumilio protein PUF4”.
# T1: PUF4 RNA-binding domain (Saccharomyces cerevisiae, UniProt P25339 537-888)
# T1 sequence: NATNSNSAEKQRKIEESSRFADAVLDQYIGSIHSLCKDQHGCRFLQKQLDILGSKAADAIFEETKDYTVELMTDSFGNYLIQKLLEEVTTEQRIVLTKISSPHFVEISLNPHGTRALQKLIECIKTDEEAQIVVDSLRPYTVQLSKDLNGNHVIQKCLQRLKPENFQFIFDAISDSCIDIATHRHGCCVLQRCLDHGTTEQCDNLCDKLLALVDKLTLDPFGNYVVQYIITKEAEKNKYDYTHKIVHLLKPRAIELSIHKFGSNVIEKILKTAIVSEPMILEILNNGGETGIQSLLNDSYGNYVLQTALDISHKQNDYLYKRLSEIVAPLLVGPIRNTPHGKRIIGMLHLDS
# Target: T1, PUF4 RNA-binding domain
# Experiment: Mg; RNA-MaP; 20 mM Na-HEPES pH 7.4, 30 mM KOAc, 0.75 mM MgCl2, 0.1% Tween-20, 5% glycerol, 0.1 mg/mL BSA, 2 mM DTT; 25 C; 0.0125-409.6 nM protein
# Settings: tags: N-His6-TEV cleaved; C-SNAP kept, Cy3B-labelled; label: tethered on chip by stalled RNA polymerase
row,Binder,Kd [nM]
1,UCUCUUUGUAAACAUUCUCUU (ssRNA) [Ic_S1_P4E.1_K4.1_C4.1_H4.1_A4.1_[T5A]_[T7C]_F4.1_[T8A]_[A9T]_T4.1],165
2,UCUCUUUGUAUGGCGUCUCUU (ssRNA) [Ic_S1_P4E.1_K4.1_C4.1_H4.1_A4.1_[A6G]_[T7G]_F4.1_[T8C]_[A9G]_T4.1],> 2300
3,UCUCUUUGUAUGGUCUCUCUU (ssRNA) [Ic_S1_P4E.1_K4.1_C4.1_H4.1_A4.1_[A6G]_[T7G]_F4.1_[A9C]_T4.1],1260
4,UCUCUUUGUAAUUUUUCUCUU (ssRNA) [Ic_S1_P4E.1_K4.1_C4.1_H4.1_A4.1_[T5A]_[A6T]_F4.1_[A9T]_T4.1],34.7
5,UCUCUUUGUAAUUACUCUCUU (ssRNA) [Ic_S1_P4E.1_K4.1_C4.1_H4.1_A4.1_[T5A]_[A6T]_F4.1_[T8A]_[A9C]_T4.1],670
6,UCUCUUUGUAAUAAUUCUCUU (ssRNA) [Ic_S1_P4E.1_K4.1_C4.1_H4.1_A4.1_[T5A]_[A6T]_[T7A]_F4.1_[T8A]_[A9T]_T4.1],172
7,UCUCUUUGUAAACCCUCUCUU (ssRNA) [Ic_S1_P4E.1_K4.1_C4.1_H4.1_A4.1_[T5A]_[T7C]_F4.1_[T8C]_[A9C]_T4.1],1020
8,UCUCUUUGUAAUACCUCUCUU (ssRNA) [Ic_S1_P4E.1_K4.1_C4.1_H4.1_A4.1_[T5A]_[A6T]_[T7A]_F4.1_[T8C]_[A9C]_T4.1],713
9,UCUCUUUGUAAACAGUCUCUU (ssRNA) [Ic_S1_P4E.1_K4.1_C4.1_H4.1_A4.1_[T5A]_[T7C]_F4.1_[T8A]_[A9G]_T4.1],508
10,UCUCUUUGUAAAAUCUCUCUU (ssRNA) [Ic_S1_P4E.1_K4.1_C4.1_H4.1_A4.1_[T5A]_[T7A]_F4.1_[A9C]_T4.1],54.4
11,UCUCUUUGUAAUUGAUCUCUU (ssRNA) [Ic_S1_P4E.1_K4.1_C4.1_H4.1_A4.1_[T5A]_[A6T]_F4.1_[T8G]_T4.1],712
12,UCUCUUUGUAAAAACUCUCUU (ssRNA) [Ic_S1_P4E.1_K4.1_C4.1_H4.1_A4.1_[T5A]_[T7A]_F4.1_[T8A]_[A9C]_T4.1],526
13,UCUCUUUGUACACAUCUCUU (ssRNA) [Ic_S1_P3E.1_K3.1_C3.1_H3.1_A3.1_[T5C]_F3.1_[T7C]_T3.1],46.1
14,UCUCUUUGUAAUUCGUCUCUU (ssRNA) [Ic_S1_P4E.1_K4.1_C4.1_H4.1_A4.1_[T5A]_[A6T]_F4.1_[T8C]_[A9G]_T4.1],517
15,UCUCUUUGUAAAACUUCUCUU (ssRNA) [Ic_S1_P4E.1_K4.1_C4.1_H4.1_A4.1_[T5A]_[T7A]_F4.1_[T8C]_[A9T]_T4.1],106
16,UCUCUUUGUAAUCUUUCUCUU (ssRNA) [Ic_S1_P4E.1_K4.1_C4.1_H4.1_A4.1_[T5A]_[A6T]_[T7C]_F4.1_[A9T]_T4.1],56.3
17,UCUCUUUGUAAAGCUUCUCUU (ssRNA) [Ic_S1_P4E.1_K4.1_C4.1_H4.1_A4.1_[T5A]_[T7G]_F4.1_[T8C]_[A9T]_T4.1],658

row,Binder,Kd [nM]
1,UCUCUUUGUAAUUGCUCUCUU (ssRNA) [Ic_S1_P4E.1_K4.1_C4.1_H4.1_A4.1_[T5A]_[A6T]_F4.1_[T8G]_[A9C]_T4.1],682
2,UCUCUUUGUAAAGCCUCUCUU (ssRNA) [Ic_S1_P4E.1_K4.1_C4.1_H4.1_A4.1_[T5A]_[T7G]_F4.1_[T8C]_[A9C]_T4.1],1020
3,UCUCUUUGUAAUAACUCUCUU (ssRNA) [Ic_S1_P4E.1_K4.1_C4.1_H4.1_A4.1_[T5A]_[A6T]_[T7A]_F4.1_[T8A]_[A9C]_T4.1],642
4,UCUCUUUGUAAUAUCUCUCUU (ssRNA) [Ic_S1_P4E.1_K4.1_C4.1_H4.1_A4.1_[T5A]_[A6T]_[T7A]_F4.1_[A9C]_T4.1],36
5,UCUCUUUGUAAUUCUUCUCUU (ssRNA) [Ic_S1_P4E.1_K4.1_C4.1_H4.1_A4.1_[T5A]_[A6T]_F4.1_[T8C]_[A9T]_T4.1],123
6,UCUCUUUGUAAAUCCUCUCUU (ssRNA) [Ic_S1_P4E.1_K4.1_C4.1_H4.1_A4.1_[T5A]_F4.1_[T8C]_[A9C]_T4.1],368
7,UCUCUUUGUAAUUAGUCUCUU (ssRNA) [Ic_S1_P4E.1_K4.1_C4.1_H4.1_A4.1_[T5A]_[A6T]_F4.1_[T8A]_[A9G]_T4.1],126
8,UCUCUUUGUAAUUUGUCUCUU (ssRNA) [Ic_S1_P4E.1_K4.1_C4.1_H4.1_A4.1_[T5A]_[A6T]_F4.1_[A9G]_T4.1],28.5
9,UCUCUUUGUAAUUGGUCUCUU (ssRNA) [Ic_S1_P4E.1_K4.1_C4.1_H4.1_A4.1_[T5A]_[A6T]_F4.1_[T8G]_[A9G]_T4.1],1880
10,UCUCUUUGUUUAUCUCUCUU (ssRNA) [Ib_S1_P3E.1_K3.1_C3.1_H3.1_[A4T]_A3.1_F3.1_[A8C]_T3.1],1280
11,UCUCUUUGUAAUAUGUCUCUU (ssRNA) [Ic_S1_P4E.1_K4.1_C4.1_H4.1_A4.1_[T5A]_[A6T]_[T7A]_F4.1_[A9G]_T4.1],12.5
12,UCUCUUUGUAUGGCCUCUCUU (ssRNA) [Ic_S1_P4E.1_K4.1_C4.1_H4.1_A4.1_[A6G]_[T7G]_F4.1_[T8C]_[A9C]_T4.1],> 2300
13,UCUCUUUGUAAACAUCUCUU (ssRNA) [Ib_S1_P3E.1_K3.1_C3.1_H3.1_A3.1_[T5A]_F3.1_[T7C]_T3.1],424
14,UCUCUUUGUAAACACUCUCUU (ssRNA) [Ic_S1_P4E.1_K4.1_C4.1_H4.1_A4.1_[T5A]_[T7C]_F4.1_[T8A]_[A9C]_T4.1],565
15,UCUCUUUGUAAACCGUCUCUU (ssRNA) [Ic_S1_P4E.1_K4.1_C4.1_H4.1_A4.1_[T5A]_[T7C]_F4.1_[T8C]_[A9G]_T4.1],951
16,UCUCUUUGUAAACUCUCUCUU (ssRNA) [Ic_S1_P4E.1_K4.1_C4.1_H4.1_A4.1_[T5A]_[T7C]_F4.1_[A9C]_T4.1],33.8
